# Positions count from the first letter of the chain named. Names and notes keep the numbering of the source.
# B1: G236D/S267E/H268E (antibody, human IgG1, kappa)
# heavy: EVQLVESGGGLVKPGGSLKLSCAASGYTFTSYVMHWVRQAPGKGLEWIGYINPYNDGTKYNEKFQGRVTISSDKSISTAYMELSSLRSEDTAMYYCARGTYYYGTRVFDYWGQGTLVTVSSASTKGPSVFPLAPSSKSTSGGTAALGCLVKDYFPEPVTVSWNSGALTSGVHTFPAVLQSSGLYSLSSVVTVPSSSLGTQTYICNVNHKPSNTKVDKKVEPKSCDKTHTCPPCPAPELLDGPSVFLFPPKPKDTLMISRTPEVTCVVVDVEEEDPEVKFNWYVDGVEVHNAKTKPREEQYNSTYRVVSVLTVLHQDWLNGKEYKCKVSNKALPAPIEKTISKAKGQPREPQVYTLPPSREEMTKNQVSLTCLVKGFYPSDIAVEWESNGQPENNYKTTPPVLDSDGSFFLYSKLTVDKSRWQQGNVFSCSVMHEALHNHYTQKSLSLSPGK
# light: DIVMTQSPATLSLSPGERATLSCRSSKSLQNVNGNTYLYWFQQKPGQSPQLLIYRMSNLNSGVPDRFSGSGSGTEFTLTISSLEPEDFAVYYCMQHLEYPITFGAGTKLEIKRTVAAPSVFIFPPSDEQLKSGTASVVCLLNNFYPREAKVQWKVDNALQSGNSQESVTEQDSKDSTYSLSSTLTLSKADYEKHKVYACEVTHQGLSSPVTKSFNRGEC
# notes: HuAM4G7 IgG1 Fc variant
# B2: G236N/S267E (antibody, human IgG1, kappa)
# heavy: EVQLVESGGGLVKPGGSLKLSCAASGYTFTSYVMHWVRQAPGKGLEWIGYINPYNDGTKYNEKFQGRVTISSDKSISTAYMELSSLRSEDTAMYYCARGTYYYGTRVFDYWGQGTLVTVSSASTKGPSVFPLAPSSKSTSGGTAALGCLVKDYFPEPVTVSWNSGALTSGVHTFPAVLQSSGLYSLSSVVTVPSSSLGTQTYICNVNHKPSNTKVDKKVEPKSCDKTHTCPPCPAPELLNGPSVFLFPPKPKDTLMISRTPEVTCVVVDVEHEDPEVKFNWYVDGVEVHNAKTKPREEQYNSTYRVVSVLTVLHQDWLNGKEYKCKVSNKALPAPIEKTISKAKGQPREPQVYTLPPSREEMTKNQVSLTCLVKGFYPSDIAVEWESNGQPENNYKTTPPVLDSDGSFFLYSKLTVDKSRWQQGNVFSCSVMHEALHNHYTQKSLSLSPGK
# light: B1 light
# notes: HuAM4G7 IgG1 Fc variant
# B3: H268D (antibody, human IgG1, kappa)
# heavy: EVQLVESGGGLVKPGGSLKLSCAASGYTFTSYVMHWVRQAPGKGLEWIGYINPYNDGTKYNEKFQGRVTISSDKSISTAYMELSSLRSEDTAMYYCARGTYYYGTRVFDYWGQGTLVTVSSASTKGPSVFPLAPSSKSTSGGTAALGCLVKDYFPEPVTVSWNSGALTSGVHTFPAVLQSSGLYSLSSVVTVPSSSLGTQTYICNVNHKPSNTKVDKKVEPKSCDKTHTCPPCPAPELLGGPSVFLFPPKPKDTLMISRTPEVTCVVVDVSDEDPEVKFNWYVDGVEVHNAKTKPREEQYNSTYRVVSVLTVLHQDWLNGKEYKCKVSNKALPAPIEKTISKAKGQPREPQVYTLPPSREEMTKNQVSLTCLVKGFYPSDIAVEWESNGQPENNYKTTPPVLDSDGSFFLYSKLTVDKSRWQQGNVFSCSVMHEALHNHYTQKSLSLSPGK
# light: B1 light
# notes: HuAM4G7 IgG1 Fc variant
# B4: L234E/S267E (antibody, human IgG1, kappa)
# heavy: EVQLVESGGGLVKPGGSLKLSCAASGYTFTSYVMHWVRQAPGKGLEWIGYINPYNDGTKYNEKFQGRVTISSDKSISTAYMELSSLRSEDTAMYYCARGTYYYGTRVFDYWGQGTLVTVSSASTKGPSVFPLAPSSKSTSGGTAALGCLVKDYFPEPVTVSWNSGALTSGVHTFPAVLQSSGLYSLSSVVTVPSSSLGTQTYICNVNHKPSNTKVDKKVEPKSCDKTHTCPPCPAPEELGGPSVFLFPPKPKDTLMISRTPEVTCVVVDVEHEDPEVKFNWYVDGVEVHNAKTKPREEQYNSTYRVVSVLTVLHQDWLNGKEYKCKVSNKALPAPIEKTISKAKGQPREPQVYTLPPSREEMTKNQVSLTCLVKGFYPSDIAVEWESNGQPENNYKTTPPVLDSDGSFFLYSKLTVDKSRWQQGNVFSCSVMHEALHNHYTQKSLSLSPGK
# light: B1 light
# notes: HuAM4G7 IgG1 Fc variant
# B5: H268E (antibody, human IgG1, kappa)
# heavy: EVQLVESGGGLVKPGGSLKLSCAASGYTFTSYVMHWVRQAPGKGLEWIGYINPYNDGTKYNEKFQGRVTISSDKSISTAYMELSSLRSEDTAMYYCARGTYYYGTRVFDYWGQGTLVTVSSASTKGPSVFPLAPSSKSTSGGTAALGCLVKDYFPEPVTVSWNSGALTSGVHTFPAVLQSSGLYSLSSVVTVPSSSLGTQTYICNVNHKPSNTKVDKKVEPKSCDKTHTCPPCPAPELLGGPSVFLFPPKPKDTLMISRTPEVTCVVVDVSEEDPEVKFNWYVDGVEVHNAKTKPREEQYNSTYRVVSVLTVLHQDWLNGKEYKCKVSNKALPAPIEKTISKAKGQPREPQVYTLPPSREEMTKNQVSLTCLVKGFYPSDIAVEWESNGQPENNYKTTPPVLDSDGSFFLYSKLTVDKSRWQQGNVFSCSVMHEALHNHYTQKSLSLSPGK
# light: B1 light
# notes: HuAM4G7 IgG1 Fc variant
# B6: G236D/S267E/L328F (antibody, human IgG1, kappa)
# heavy: B1 heavy with E272H, L332F
# light: B1 light
# notes: HuAM4G7 IgG1 Fc variant
# B7: G237D/S267E (antibody, human IgG1, kappa)
# heavy: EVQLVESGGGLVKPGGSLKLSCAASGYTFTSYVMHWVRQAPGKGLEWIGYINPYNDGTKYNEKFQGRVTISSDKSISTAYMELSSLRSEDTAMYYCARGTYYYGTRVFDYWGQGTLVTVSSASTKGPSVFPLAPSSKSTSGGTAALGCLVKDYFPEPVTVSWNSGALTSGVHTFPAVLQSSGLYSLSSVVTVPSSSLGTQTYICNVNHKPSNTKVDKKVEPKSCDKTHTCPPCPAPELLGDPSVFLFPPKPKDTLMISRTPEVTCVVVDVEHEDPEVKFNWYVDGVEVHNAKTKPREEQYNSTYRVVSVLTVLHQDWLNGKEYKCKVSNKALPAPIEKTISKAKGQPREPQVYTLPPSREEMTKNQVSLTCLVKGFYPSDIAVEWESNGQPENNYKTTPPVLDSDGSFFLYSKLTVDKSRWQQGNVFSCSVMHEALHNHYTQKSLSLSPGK
# light: B1 light
# notes: HuAM4G7 IgG1 Fc variant
# B8: G237A (antibody, human IgG1, kappa)
# heavy: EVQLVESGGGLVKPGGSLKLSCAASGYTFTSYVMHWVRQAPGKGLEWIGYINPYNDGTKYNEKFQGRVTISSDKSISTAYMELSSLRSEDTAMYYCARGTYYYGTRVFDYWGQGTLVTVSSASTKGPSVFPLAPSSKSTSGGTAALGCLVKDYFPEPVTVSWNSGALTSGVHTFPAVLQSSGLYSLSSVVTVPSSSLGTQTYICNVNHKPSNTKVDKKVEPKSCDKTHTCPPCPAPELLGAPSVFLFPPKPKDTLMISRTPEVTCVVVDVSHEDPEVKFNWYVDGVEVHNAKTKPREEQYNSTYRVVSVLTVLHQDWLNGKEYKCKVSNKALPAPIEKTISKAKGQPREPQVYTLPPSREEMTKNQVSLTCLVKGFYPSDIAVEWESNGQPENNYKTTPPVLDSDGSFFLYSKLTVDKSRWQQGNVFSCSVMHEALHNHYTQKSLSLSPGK
# light: B1 light
# notes: HuAM4G7 IgG1 Fc variant
# Key:
# Assay in all cases: SPR (Biacore)
# FcγRIIaR = target: T1, FcγRIIaR (human, UniProt P12318)
# T1 construct: recombinant receptor protein with 6xHis and GST tags; also called R131 FcγRIIa
# T1 sequence (receptor, looked up): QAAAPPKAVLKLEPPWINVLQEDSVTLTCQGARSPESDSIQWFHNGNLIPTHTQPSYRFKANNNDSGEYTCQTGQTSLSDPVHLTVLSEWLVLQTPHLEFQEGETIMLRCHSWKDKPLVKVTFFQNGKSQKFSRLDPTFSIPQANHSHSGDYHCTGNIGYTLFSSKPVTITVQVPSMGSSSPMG
# [1] = target: T2, human FcγRI receptor protein (R&D Systems) (human, UniProt P12314 16-288)
# T2 construct: also called CD64
# [2] = target: T3, human V158 FcγRIIIa receptor protein (6xHis and GST tags) (human, UniProt P08637 17-208, limits assumed)
# T3 construct: also called VIIIa
# [3] = target: T4, human H131 FcγRIIa receptor protein (6xHis and GST tags) (human, UniProt P12318 34-217, limits assumed)
# T4 construct: also called HIIa
# T4 sequence (looked up): T1 sequence (receptor, looked up) with R134H
# [4] = target: T5, human FcγRIIb receptor protein (R&D Systems) (human, UniProt P31994 46-217)
# T5 construct: Analyte injected over antibodies captured on a protein A/G chip (Biacore); also called CD32b
# T5 sequence (looked up): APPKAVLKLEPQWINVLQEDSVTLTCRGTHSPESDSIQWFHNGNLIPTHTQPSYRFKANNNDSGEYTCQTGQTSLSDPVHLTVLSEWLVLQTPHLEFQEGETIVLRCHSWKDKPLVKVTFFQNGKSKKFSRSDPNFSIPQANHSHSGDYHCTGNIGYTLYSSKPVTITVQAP
# T3 sequence (P08637 17-208 F176V limits assumed): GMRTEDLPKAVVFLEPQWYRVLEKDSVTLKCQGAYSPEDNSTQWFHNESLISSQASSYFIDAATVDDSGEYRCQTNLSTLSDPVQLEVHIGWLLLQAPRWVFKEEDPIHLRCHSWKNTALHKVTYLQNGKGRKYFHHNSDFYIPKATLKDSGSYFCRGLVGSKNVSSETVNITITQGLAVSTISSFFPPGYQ
# T2 sequence (P12314 16-288 limits assumed): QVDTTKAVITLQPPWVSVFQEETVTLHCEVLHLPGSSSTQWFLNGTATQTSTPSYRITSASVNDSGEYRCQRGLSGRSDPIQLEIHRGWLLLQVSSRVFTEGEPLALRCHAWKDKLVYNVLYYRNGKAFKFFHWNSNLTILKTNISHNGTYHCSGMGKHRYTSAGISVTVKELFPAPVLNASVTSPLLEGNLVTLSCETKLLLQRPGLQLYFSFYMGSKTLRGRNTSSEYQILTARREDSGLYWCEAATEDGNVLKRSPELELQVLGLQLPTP
Binder,Fold FcγRIIaR (FcγRIIaR),Fold FcγRI [1],binding result [2],Fold FcγRIIaH [3],Fold FcγRIIb [4],binding result [3],Fold FcγRIIIaV [2]
B1,29.9 fold,0.0902 fold,no binding,0.103 fold,110 fold,,
B2,3.27 fold,0.0355 fold,no binding,,19.8 fold,no binding,
B3,4.19 fold,2.35 fold,,1.89 fold,3.06 fold,,3.08 fold
B4,10.7 fold,0.131 fold,no binding,,15.1 fold,no binding,
B5,3.19 fold,2.74 fold,,1.43 fold,2.62 fold,,2.19 fold
B6,59.9 fold,0.0736 fold,no binding,0.0301 fold,149 fold,,
B7,13.6 fold,0.0874 fold,no binding,,17 fold,no binding,
B8,0.704 fold,0.0108 fold,no binding,,0.191 fold,no binding,

# Source: patent US20170355766A1 (Xencor, published 2017)
